Experimental data from paper PMC5683418 (Molecular cell, 2017).

Biological target: T1, highly purified Flag-HA-tagged NRF2 (human, UniProt Q16236 1-605)
T1 sequence (looked up): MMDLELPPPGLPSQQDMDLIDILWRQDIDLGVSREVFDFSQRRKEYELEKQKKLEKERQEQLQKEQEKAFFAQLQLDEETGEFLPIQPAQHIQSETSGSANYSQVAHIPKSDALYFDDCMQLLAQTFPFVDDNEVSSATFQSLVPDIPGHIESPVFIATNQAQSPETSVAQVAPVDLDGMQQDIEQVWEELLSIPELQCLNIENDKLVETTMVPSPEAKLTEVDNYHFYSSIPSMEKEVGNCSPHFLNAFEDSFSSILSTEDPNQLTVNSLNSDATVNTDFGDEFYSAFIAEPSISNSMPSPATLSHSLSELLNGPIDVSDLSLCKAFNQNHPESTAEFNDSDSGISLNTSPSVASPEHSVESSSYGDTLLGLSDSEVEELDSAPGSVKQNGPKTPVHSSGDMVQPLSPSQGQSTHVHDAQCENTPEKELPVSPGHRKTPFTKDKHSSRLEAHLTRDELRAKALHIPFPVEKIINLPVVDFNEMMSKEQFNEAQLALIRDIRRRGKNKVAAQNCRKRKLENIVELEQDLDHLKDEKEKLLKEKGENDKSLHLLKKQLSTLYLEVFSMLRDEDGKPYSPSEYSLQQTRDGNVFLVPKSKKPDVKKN
Assay: pull-down

- binding result: binds
B1: GST-ARF (1–64) (domain or fragment, UniProt Q8N726 1-64, looked up)
chain: MVRRFLVTLRIRRACGPPRVRVFVVHIPRLTGEWAAPGAPAAVALVLMLLRSQRLGQQPLPRRP
